Experimental data reported in patent US20240400614A1, “CLEAVABLE PEPTIDES AND METHODS OF USE THEREOF” (Bright Peak Therapeutics AG, priority 2023, published 2024).
Square brackets hold non-standard residues; d marks the D form. Ends that are not written are not given here. Tyr(3-NO2) = N[C@@H](Cc1ccc(O)c([N+](=O)[O-])c1)C(=O)O; 2Abz = Nc1ccccc1C(=O)O

What was measured:
Type in all cases: biochemical
Kallikrein-3 = Kallikrein-3 (Homo sapiens, UniProt P07288); test: FRET peptide cleavage efficiency with Kallikrein-3; settings: peptide 200 uM, Kallikrein-3 2 μg/ml, 37° C., pH 8
Sequence of Kallikrein-3 (P07288 25-261, species assumed): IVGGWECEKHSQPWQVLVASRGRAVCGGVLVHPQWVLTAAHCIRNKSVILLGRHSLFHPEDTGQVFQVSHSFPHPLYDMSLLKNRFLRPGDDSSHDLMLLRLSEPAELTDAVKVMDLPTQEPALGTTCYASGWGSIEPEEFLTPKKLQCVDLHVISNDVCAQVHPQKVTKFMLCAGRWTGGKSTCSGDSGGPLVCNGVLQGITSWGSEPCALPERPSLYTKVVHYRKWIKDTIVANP

matriptase = biological target: T1, matriptase (Homo sapiens, UniProt Q9Y5Y6); test: FRET peptide cleavage efficiency with matriptase
T1 construct: purchased R&D Systems 3946-SEB
T1 sequence (Q9Y5Y6 615-855 limits assumed): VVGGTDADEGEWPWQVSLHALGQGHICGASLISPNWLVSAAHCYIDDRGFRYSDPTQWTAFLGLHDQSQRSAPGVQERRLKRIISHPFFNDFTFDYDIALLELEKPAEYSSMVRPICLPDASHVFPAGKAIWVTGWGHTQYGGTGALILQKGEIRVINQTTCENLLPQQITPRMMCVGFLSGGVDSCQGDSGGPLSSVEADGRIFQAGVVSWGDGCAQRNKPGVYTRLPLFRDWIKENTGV

uPA = uPA (Homo sapiens, UniProt P00749); test: FRET peptide cleavage efficiency with uPA
MMP-2 = biological target: T2, MMP-2 (Homo sapiens, UniProt P08253); test: FRET peptide cleavage efficiency with MMP-2
T2 construct: purchased SIGMA PF023
T2 sequence (P08253 110-660): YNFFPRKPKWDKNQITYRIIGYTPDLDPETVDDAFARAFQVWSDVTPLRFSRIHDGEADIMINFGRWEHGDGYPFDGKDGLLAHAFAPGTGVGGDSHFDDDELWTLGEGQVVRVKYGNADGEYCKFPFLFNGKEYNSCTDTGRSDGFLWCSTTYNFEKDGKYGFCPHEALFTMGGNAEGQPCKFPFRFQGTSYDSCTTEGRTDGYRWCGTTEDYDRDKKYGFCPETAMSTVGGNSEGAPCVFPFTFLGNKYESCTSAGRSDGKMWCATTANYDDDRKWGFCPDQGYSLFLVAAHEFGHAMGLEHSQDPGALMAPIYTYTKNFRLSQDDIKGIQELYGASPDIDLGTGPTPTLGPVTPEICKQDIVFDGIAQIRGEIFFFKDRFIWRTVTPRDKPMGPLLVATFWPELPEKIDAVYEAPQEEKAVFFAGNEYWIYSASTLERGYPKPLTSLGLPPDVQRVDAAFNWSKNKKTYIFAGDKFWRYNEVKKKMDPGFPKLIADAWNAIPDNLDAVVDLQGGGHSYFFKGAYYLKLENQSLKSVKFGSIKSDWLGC

MMP-9 = biological target: T3, MMP-9 (Homo sapiens, UniProt P14780); test: FRET peptide cleavage efficiency with MMP-9 (standard pH 7.5; also pH 6.5)
T3 construct: purchased SIGMA PF024
T3 sequence (P14780 94-707): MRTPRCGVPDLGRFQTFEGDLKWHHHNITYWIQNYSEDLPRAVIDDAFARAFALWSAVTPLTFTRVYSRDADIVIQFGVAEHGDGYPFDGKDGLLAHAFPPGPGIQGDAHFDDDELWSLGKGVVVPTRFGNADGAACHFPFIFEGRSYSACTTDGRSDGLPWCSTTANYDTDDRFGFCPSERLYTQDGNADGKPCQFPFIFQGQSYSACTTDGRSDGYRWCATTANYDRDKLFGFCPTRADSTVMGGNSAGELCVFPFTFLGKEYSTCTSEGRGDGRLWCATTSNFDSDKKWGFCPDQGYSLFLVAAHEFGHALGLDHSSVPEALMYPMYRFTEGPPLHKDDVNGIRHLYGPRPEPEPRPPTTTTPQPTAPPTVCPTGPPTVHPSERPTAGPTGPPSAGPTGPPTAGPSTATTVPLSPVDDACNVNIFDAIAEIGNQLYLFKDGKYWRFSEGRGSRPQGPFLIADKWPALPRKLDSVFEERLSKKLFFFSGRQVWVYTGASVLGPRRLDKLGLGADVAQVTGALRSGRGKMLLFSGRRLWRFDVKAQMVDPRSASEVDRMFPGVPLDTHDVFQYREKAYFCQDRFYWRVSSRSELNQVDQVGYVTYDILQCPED

MMP-7 = biological target: T4, MMP-7 (Homo sapiens, UniProt P09237); test: FRET peptide cleavage efficiency with MMP-7 (standard pH 7.5; also pH 6.5)
T4 construct: purchased SIGMA CC1059
T4 sequence (P09237 95-267): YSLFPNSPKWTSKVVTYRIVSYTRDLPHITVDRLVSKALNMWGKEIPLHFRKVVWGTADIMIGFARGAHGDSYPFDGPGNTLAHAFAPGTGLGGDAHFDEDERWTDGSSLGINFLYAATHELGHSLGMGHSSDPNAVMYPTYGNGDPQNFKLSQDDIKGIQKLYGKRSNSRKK

[1] = t = 15 min, 200 uM linker, 1 ug/ml protease, 37° C., buffer B pH 9.0
[2] = t = 60 min, 200 uM linker, 1 ug/ml protease, 37° C., buffer B pH 9.0
[3] = 200 uM linker, 1 ug/ml protease, 37° C., buffer B pH 9.0
[4] = t = 15 min, 200 uM linker, 1 ug/ml protease, 37° C., buffer A pH 8.5
[5] = t = 60 min, 200 uM linker, 1 ug/ml protease, 37° C., buffer A pH 8.5
[6] = t = 120 min, 200 uM linker, 1 ug/ml protease, 37° C., buffer A pH 8.5
[7] = t = 15 min, 200 uM linker, 1 ug/ml protease, 37° C., buffer C pH 7.5
[8] = t = 60 min, 200 uM linker, 1 ug/ml protease, 37° C., buffer C pH 7.5
[9] = t = 120 min, 200 uM linker, 1 ug/ml protease, 37° C., buffer C pH 7.5
[10] = t = 15 min, standard conditions (Table 8)
[11] = t = 60 min, standard conditions (Table 8)
[12] = t = 120 min, standard conditions (Table 8)

Substance | Kallikrein-3 t = 1 h % cleavage (Kallikrein-3) [%] | Kallikrein-3 t = 3 h % cleavage (Kallikrein-3) [%] | Kallikrein-3 t = 6 h % cleavage (Kallikrein-3) [%] | Kallikrein-3 t = 8 h % cleavage (Kallikrein-3) [%] | % cleavage Matriptase t = 15 min (matriptase; [1]) [%] | % cleavage Matriptase t = 60 min (matriptase; [2]) [%] | % cleavage Matriptase t = 120 min (matriptase; [3]) [%] | % cleavage uPA t = 15 min (uPA; [4]) [%] | % cleavage uPA t = 60 min (uPA; [5]) [%] | % cleavage uPA t = 120 min (uPA; [6]) [%] | % cleavage MMP-2 t = 15 min (MMP-2; [7]) [%] | % cleavage MMP-2 t = 60 min (MMP-2; [8]) [%] | % cleavage MMP-2 t = 120 min (MMP-2; [9]) [%] | % cleavage MMP-2 t = 15 min (MMP-2; t = 15 min (Table 9)) [%] | % cleavage MMP-2 t = 60 min (MMP-2; t = 60 min (Table 9)) [%] | % cleavage MMP-2 t = 120 min (MMP-2; t = 120 min (Table 9)) [%] | % cleavage MMP-9 t = 15 min (MMP-9; t = 15 min (Table 9)) [%] | % cleavage MMP-9 t = 60 min (MMP-9; t = 60 min (Table 9)) [%] | % cleavage MMP-9 t = 120 min (MMP-9; t = 120 min (Table 9)) [%] | % cleavage MMP-7 t = 15 min (MMP-7; t = 15 min (Table 9)) [%] | further results
SSQYSSPG ([2Abz]SSQYSSPG[Tyr(3-NO2)]-NH2) [LNK069] | 6 | 16 | 31 | 40 | 0 | 0 | 0 | 0 | 0 | 0 | 1 | 6 | 13 |  |  |  |  |  |  |  | 
KLYSSKQ ([2Abz]KLYSSKQ[Tyr(3-NO2)]-NH2) [LNK071] | 23 | 55 | 83 | 94 | 0 | 0 | 0 | 0 | 0 | 0 | 1 | 13 | 28 |  |  |  |  |  |  |  | 
SQLYSSPG ([2Abz]SQLYSSPG[Tyr(3-NO2)]-NH2) [LNK068] | 31 | 70 | 94 | 100 | 0 | 0 | 0 |  |  |  | 2 | 9 | 18 |  |  |  |  |  |  |  | 
SSLYSSPG ([2Abz]SSLYSSPG[Tyr(3-NO2)]-NH2) [LNK065] | 32 | 68 | 93 | 100 | 0 | 0 | 0 |  |  |  | 3 | 12 | 21 |  |  |  |  |  |  |  | 
SSLQSSPG ([2Abz]SSLQSSPG[Tyr(3-NO2)]-NH2) [LNK066] | 14 | 40 | 67 | 78 | 0 | 0 | 0 |  |  |  | 1 | 5 | 9 |  |  |  |  |  |  |  | 
SGRVANLVG (not fully specified (N-terminus, C-terminus)) [LNK017] |  |  |  |  | 29 | 81 | 96 | 1 | 6 | 12 | 90 | 99 | 99 | 89 | 97 | 100 | 43 | 94 | 100 | 62 | % cleavage Matriptase t = 15 min (matriptase; pH 6.5, t = 15 min (Table 7)): 5%; % cleavage Matriptase t = 60 min (matriptase; pH 6.5, t = 60 min (Table 7)): 26%; % cleavage Matriptase t = 15 min (matriptase; pH 7.5, t = 15 min (Table 7)): 25%; % cleavage Matriptase t = 60 min (matriptase; pH 7.5, t = 60 min (Table 7)): 68%; % cleavage uPA t = 60 min (uPA; pH 6.5, t = 60 min (Table 7)): 0%; % cleavage uPA t = 120 min (uPA; pH 6.5, t = 120 min (Table 7)): 0%; % cleavage uPA t = 60 min (uPA; pH 7.5, t = 60 min (Table 7)): 7%; % cleavage uPA t = 120 min (uPA; pH 7.5, t = 120 min (Table 7)): 13%; % cleavage MMP-2 t = 15 min (MMP-2; pH 6.5, t = 15 min (Table 7)): 93%; % cleavage MMP-2 t = 60 min (MMP-2; pH 6.5, t = 60 min (Table 7)): 100%; % cleavage MMP-2 t = 15 min (MMP-2; pH 7.5, t = 15 min (Table 7)): 37%; % cleavage MMP-2 t = 60 min (MMP-2; pH 7.5, t = 60 min (Table 7)): 100%; % cleavage MMP-7 t = 60 min (MMP-7; t = 60 min (Table 9)): 96%; % cleavage MMP-7 t = 120 min (MMP-7; t = 120 min (Table 9)): 100%
SGRVLRKAGPQPLVD ([2Abz]SGRVLRKAGPQPLVD[Tyr(3-NO2)]-NH2) [LNK003] |  |  |  |  | 96 | 91 | 88 | 3 | 10 | 20 | 8 | 38 | 65 | 7 | 34 | 59 | 22 | 72 | 93 | 19 | % cleavage Matriptase t = 15 min (matriptase; pH 6.5, t = 15 min (Table 7)): 48%; % cleavage Matriptase t = 60 min (matriptase; pH 6.5, t = 60 min (Table 7)): 93%; % cleavage Matriptase t = 15 min (matriptase; pH 7.5, t = 15 min (Table 7)): 98%; % cleavage Matriptase t = 60 min (matriptase; pH 7.5, t = 60 min (Table 7)): 100%; % cleavage uPA t = 60 min (uPA; pH 6.5, t = 60 min (Table 7)): 0%; % cleavage uPA t = 120 min (uPA; pH 6.5, t = 120 min (Table 7)): 0%; % cleavage uPA t = 60 min (uPA; pH 7.5, t = 60 min (Table 7)): 0%; % cleavage uPA t = 120 min (uPA; pH 7.5, t = 120 min (Table 7)): 0%; % cleavage MMP-2 t = 15 min (MMP-2; pH 6.5, t = 15 min (Table 7)): 5%; % cleavage MMP-2 t = 60 min (MMP-2; pH 6.5, t = 60 min (Table 7)): 39%; % cleavage MMP-2 t = 15 min (MMP-2; pH 7.5, t = 15 min (Table 7)): 6%; % cleavage MMP-2 t = 60 min (MMP-2; pH 7.5, t = 60 min (Table 7)): 28%; % cleavage MMP-7 t = 60 min (MMP-7; t = 60 min (Table 9)): 62%; % cleavage MMP-7 t = 120 min (MMP-7; t = 120 min (Table 9)): 86%
SQYQSSPG ([2Abz]SQYQSSPG[Tyr(3-NO2)]-NH2) [LNK067] | 8 | 22 | 41 | 51 | 0 | 0 | 0 |  |  |  | 1 | 5 | 10 |  |  |  |  |  |  |  | 
SGRPLGYFGKL ([2Abz]SGRPLGYFGKL[Tyr(3-NO2)]-NH2) [LNK056] |  |  |  |  | 0 | 0 | 0 | 0 | 0 | 0 | 75 | 100 | 100 | 75 | 100 | 100 | 32 | 100 | 100 | 0 | % cleavage MMP-7 t = 60 min (MMP-7; t = 60 min (Table 9)): 0%; % cleavage MMP-7 t = 120 min (MMP-7; t = 120 min (Table 9)): 0%
RGRKPQPLVD ([2Abz]RGRKPQPLVD[Tyr(3-NO2)]-NH2) [LNK039] |  |  |  |  |  |  |  |  |  |  |  |  |  | 10 | 38 | 61 | 25 | 74 | 94 | 35 | % cleavage Matriptase t = 15 min (matriptase; [10]): 77%; % cleavage Matriptase t = 60 min (matriptase; [11]): 100%; % cleavage Matriptase t = 120 min (matriptase; standard conditions (Table 8)): 100%; % vcleavage uPA t = 15 min (uPA; [10]): 0%; % cleavage uPA t = 60 min (uPA; [11]): 0%; % cleavage uPA t = 120 min (uPA; [12]): 0%; % cleavage MMP-2 t = 60 min (MMP-2; [11]): 38%; % cleavage MMP-2 t = 120 min (MMP-2; [12]): 61%; % cleavage MMP-9 t = 15 min (MMP-9; [10]): 25%; % cleavage MMP-9 t = 60 min (MMP-9; [11]): 74%; % cleavage MMP-9 t = 120 min (MMP-9; [12]): 94%; % cleavage MMP-7 t = 15 min (MMP-7; [10]): 35%; % cleavage MMP-7 t = 60 min (MMP-7; t = 60 min (Table 9)): 80%; % cleavage MMP-7 t = 60 min (MMP-7; [11]): 80%; % cleavage MMP-7 t = 120 min (MMP-7; t = 120 min (Table 9)): 96%; % cleavage MMP-7 t = 120 min (MMP-7; [12]): 96%
